Assay results as given in patent US20090098530A1 (CRUCELL HOLLAND B V, published 2009).

Biological target: T1, human angiotensin-converting enzyme 2 (ACE2 protein) expressed on stably transfected PER.C6 cells (human, UniProt Q9BYF1 18-805)
T1 construct: also called human ACE2 receptor; PER.C6-ACE2
Assay: flow cytometry on ACE2-transfected PER.C6 clones

T1 sequence (Q9BYF1 18-805 limits assumed): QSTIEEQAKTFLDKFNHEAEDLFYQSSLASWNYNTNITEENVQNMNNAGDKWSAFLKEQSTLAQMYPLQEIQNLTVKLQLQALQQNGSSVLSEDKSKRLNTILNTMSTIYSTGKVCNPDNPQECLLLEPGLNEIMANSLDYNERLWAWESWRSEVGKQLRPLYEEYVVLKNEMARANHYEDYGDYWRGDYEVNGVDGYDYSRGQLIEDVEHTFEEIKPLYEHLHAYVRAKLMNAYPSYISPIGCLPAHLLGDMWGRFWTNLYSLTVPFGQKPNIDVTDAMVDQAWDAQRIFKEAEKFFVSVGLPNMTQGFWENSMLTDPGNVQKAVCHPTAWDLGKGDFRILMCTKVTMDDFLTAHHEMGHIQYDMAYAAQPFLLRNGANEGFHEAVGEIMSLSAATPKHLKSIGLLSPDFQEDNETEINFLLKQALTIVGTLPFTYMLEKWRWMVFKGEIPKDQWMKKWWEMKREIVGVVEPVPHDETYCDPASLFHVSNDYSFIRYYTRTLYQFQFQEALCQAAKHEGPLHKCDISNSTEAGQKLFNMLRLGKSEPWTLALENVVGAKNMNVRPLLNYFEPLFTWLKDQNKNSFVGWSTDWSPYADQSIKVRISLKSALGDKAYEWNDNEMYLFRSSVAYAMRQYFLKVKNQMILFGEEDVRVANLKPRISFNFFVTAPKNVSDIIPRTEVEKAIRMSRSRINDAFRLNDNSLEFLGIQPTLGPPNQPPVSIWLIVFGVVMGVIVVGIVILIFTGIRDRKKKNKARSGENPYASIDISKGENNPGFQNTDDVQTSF

B1: wild-type SARS-CoV Frankfurt 1 S318-510 fragment, myc/His-tagged (ligand)
chain: not shown
  binding result: binds
